{
  "source": "the DeepSol protein solubility set",
  "data": [
    {"assay": "soluble on expression in E. coli; label from the status in PepcDB or PDB records", "values": [
      {"sequence": "AHHHHHHSSGLEVLFQGPNELNYGQLSISPIFQGGSYQLNNKSIDISSLLLDKLSGESQTVVMKFKADKPNSLQALFGLSNSKAGFKNNYFSIFMRDSGEIGVEIRDAQKGINYLFSRPASLWGKHKGQAVENTLVFVSDSKDKTYTMYVNGIEVFSETVDTFLPISNINGIDKATLGAVNREGKEHYLAKGSIDEISLFNKAISDQEVSTIPLSNPFQLIFQSGDSTQANYFRIPTLYTLSSGRVLSSIDARYGGTHDSKSKINIATSYSDDNGKTWSEPIFAMKFNDYEEQLVYWPRDNKLKNSQISGSASFIDSSIVEDKKSGKTILLADVMPAGIGNNNANKADSGFKEINGHYYLKLKKNGDNDFRYTVRENGVVYNETTNKPTNYTINDKYEVLEGGKSLTVEQYSVDFDSGSLRERHNGKQVPMNVFYKDSLFKVTPTNYIAMTTSQNRGESWEQFKLLPPFLGEKHNGTYLCPGQGLALKSSNRLIFATYTSGELTYLISDDSGQTWKKSSASIPFKNATAEAQMVELRDGVIRTFFRTTTGKIAYMTSRDSGETWSKVSYIDGIQQTSYGTQVSAIKYSQLIDGKEAVILSTPNSRSGRKGGQLVVGLVNKEDDSIDWKYHYDIDLPSYGYAYSAITELPNHHIGVLFEKYDSWSRNELHLSNVVQYIDLEINDLTK", "soluble on expression in E. coli": "soluble"},
      {"sequence": "GPGSMESQKRMMWNLKGRSAVAALDPSTRHRIMQSHAMASSFHKPLLATLEVLITPQYVGGLTGPLQKPEPFICHVTRLLQITPDPSIVLAMLHQDVHKYLRVAALFIIRLIGNEAMMREAMRVGWEDYRKIRVYGYVEDLAGTIDSKENNAPDEEEGFVRAPAYGIMCVDEITDRLFNVGESDINKNGGSGNLWLGLRLPPILL", "soluble on expression in E. coli": "not soluble"},
      {"sequence": "MGSDKIHHHHHHMSPKTDIAEVNQESLYRIFTIPEAPDSTLGKIEKHLSENLMGFLGEHIVAREKPLQEIERDFDKSQIPEEPAFVSDHTEFLLDKLVAHSVHTASPRFIGHMTSALPYFLLPLAKLMVGLNQNLVKIETSKAFTPLERNVIGMMHHLVYQQDAPFYNRWMHSAQHSLGAFCSGGTIANMTALWVARNRLLQADGDFAGISADGLAAGLQHYGYSKLTVVVSERGHYSLSKAADVLGIGRRNLVSVATDSDNRIRIDELRKTCEKIAKEGGKVLALVGVAGTTETGHIDPLDEMATVAEEVDAHFHVDAAWGGATLLSEQHRPLLAGIERADSVTIDAHKQMYVPMGAGLVLFKNPALVKSIEYHAEYIIRQGSKDLGSHTMEGSRAGMAMMVFSAMHVIGRRGYELLINNSIDKARYFSKLISEQDDFEVITEPELCILTYRFVPIKVKTVLDKATPEQLARLTPHLNALTRYIQKRQRETGQSFVSRTKLTPAQYHHEPTVVFRVVLANPLTTNEMLQEVLCEQRKIAAKATSLRGALHTEMRELGMLI", "soluble on expression in E. coli": "not soluble"},
      {"sequence": "MRKPKITVIGGGTGIPVILKSLRLEDVEITAVVTVADDGGSSGELRSVMQLTPPGDLRNVLVALSDMPKFYEQIFQYRFAEGDGDFAGHPLGNLIIAGVAEMQGSTYNAMQSLTQFFHTTGKIYPSSEHPLTLHAVFKDGHEVVGESQIADYKGMIDHVYVTNTYNEETPTASRKVVDAILESDMIVLGPGSLFTSILPNLVIPEIKQALLETRAEVAYVCNIMTQRGETEHFTDADHVEVLKRHLGQDAIDTVLVNIEKVPESYMENNHFDEYLVQVEHDFSGLRKHARRVISSNFLKLEKGGAFHHGDFVVEELMNLVGTHLLEHHHHHH", "soluble on expression in E. coli": "not soluble"},
      {"sequence": "RSDSIMILSINPKTKKTEIVSIPRDTRAEIVGRGTTEKIAHAYAYGGPNMAVKSLEKLMNVPIDHYATIDMDGLHNMIDSIGGVDVVSNDTFTVDGVRFTKGQQTHVNGDQALKFIRSRKEEGAGGDFGRQQRQQIVLEAMANKIAS", "soluble on expression in E. coli": "not soluble"},
      {"sequence": "MSLRAVIRVAFILMDNFSLMSFTAAMDALVTANLMGDAPIFDIVKIGLKGRVAMSDLGIAIPTDLDLSELRARHDLLLVVGGLRVDLKSTPCLRRKLFAAASAGTSLGGLWNGAYFLADARVMGGHTCAVHPDGRAMMADAFPDLRISDRSHVVDLERVTCAGASSSLRMMLEYIRVTKGSSLARAVEEILGCDEHEGHHHHHH", "soluble on expression in E. coli": "soluble"}
    ]}
  ]
}
